Data taken from PMC2860019 (Journal of molecular biology, 2010).

B1: Cp149d (HBV capsid protein residues 1-149, C48A, C107A, G123A; dimer) (domain or fragment)
chain: MDIDPYKEFGATVELLSFLPSDFFPSVRDLLDTAAALYRDALESPEHASPHHTALRQAILCWGDLMTLATWVGTNLEDPASRDLVVSYVNTNVGLKFRQLLWFHISALTFGRETVLEYLVSFAVWIRTPPAYRPPNAPILSTLPETTVV

Assays:
[1] = target: Cp(-10)149d (recombinant HBV e-antigen, residues (-10)-149, C48A, C107A, G123A; dimer) (Hepatitis B virus) (UniProt P03147); assay: AUC
[2] = target: the molecule itself; assay: AUC

Row | Molecule | stoichiometry N [1] | stoichiometry N [2]
1 | Cp(-10)149d (recombinant HBV e-antigen, residues (-10)-149, C48A, C107A, G123A; dimer) (from UniProt P03147 1-149) (natural protein) | 2 | –
2 | B1 | – | 2
